Molecular target: ALG-2 (human (endogenous in HeLa)) (UniProt O75340)
Sequence of UniProt O75340 (O75340 whole entry): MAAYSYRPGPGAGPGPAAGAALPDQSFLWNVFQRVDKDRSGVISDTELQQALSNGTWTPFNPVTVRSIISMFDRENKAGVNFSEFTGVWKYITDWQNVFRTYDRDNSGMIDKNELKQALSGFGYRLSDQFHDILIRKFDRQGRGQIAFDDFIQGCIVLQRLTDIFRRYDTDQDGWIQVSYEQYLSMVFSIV

**Q.** Which viability of EGFP-expressing HeLa cells 1 hour after 50 uM digitonin in the presence of 10 uM peptide (about 60% without the peptide) does the source give for QGPPYPTYPGYPGYCQ [ALIX peptide] here?
**A.** 37 % viability
